Data taken from the supplement of paper PMC10724198.
± gives the standard deviation of the averaged measurements.

System: Saccharomyces cerevisiae
Assay: protein stability index of tFT-peptide fusion (C-terminal peptide) (PSI (0-1 scale)); higher = more stable (slower turnover)
Conditions: temperature: 30 C
Description: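 MPS profiling in S. cerevisiae of the yeast C-terminome library: the last 12 aa of each annotated ORF are fused to the C-terminus of a sfGFP-mCherry timer, after a GGGS linker. Cells are FACS-sorted into 8 mCherry/sfGFP bins and deep-sequenced. PSI runs from 0 (unstable) to 1 (stable); wild type and das1Δ backgrounds, two technical replicates each.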

[1] = genetic background: das1 deletion

Sequence: TYYRRRATANSL [YMR155W C-terminal 12 aa]
- protein stability index [1]: 0.6958 ± 0.0045
- protein stability index (genetic background: wild type): 0.676 ± 0.011

Sequence: DNFRERYFNNFN [TRM11 C-terminal 12 aa]
- protein stability index [1]: 0.71368 ± 0.00039
- protein stability index (genetic background: wild type): 0.6816 ± 0.0054

Sequence: DDECTYKMAKFK [YNL303W C-terminal 12 aa]
- protein stability index [1]: 0.68172 ± 0.00037
- protein stability index (genetic background: wild type): 0.664 ± 0.035

Sequence: ARRTFTGRKIVY [ARC35 C-terminal 12 aa]
- protein stability index [1]: 0.7301 ± 0.0013
- protein stability index (genetic background: wild type): 0.7288 ± 0.0052

Sequence: VACCGCNMTVAY [YIL058W C-terminal 12 aa]
- protein stability index [1]: 0.528 ± 0.015
- protein stability index (genetic background: wild type): 0.533 ± 0.029

Sequence: GEAVPEPVEEES [SEC27 C-terminal 12 aa]
- protein stability index [1]: 0.698 ± 0.013
- protein stability index (genetic background: wild type): 0.691 ± 0.043

Sequence: WRPQQPGQIEQA [YLR101C C-terminal 12 aa]
- protein stability index [1]: 0.723 ± 0.03
- protein stability index (genetic background: wild type): 0.6668 ± 0.00094

Sequence: VIGEKGITDSSD [DMC1 C-terminal 12 aa]
- protein stability index [1]: 0.733 ± 0.023
- protein stability index (genetic background: wild type): 0.721 ± 0.018

Sequence: LAIEIVLCLKAR [YLR255C C-terminal 12 aa]
- protein stability index [1]: 0.331 ± 0.0034
- protein stability index (genetic background: wild type): 0.355 ± 0.019

Sequence: GVSTGYEKIRYI [FUI1 C-terminal 12 aa]
- protein stability index [1]: 0.734 ± 0.012
- protein stability index (genetic background: wild type): 0.31 ± 0.025

Sequence: WKKFLKFSKNSD [HXT13 C-terminal 12 aa]
- protein stability index [1]: 0.7176 ± 0.0052
- protein stability index (genetic background: wild type): 0.685 ± 0.039

Sequence: ELWTLQAPELNL [YKL036C C-terminal 12 aa]
- protein stability index [1]: 0.72 ± 0.021
- protein stability index (genetic background: wild type): 0.702 ± 0.04

Sequence: SQNGHTSGSENI [LSP1 C-terminal 12 aa]
- protein stability index [1]: 0.6941 ± 0.005
- protein stability index (genetic background: wild type): 0.699 ± 0.03

Sequence: EDPDFLQHALQS [GRX3 C-terminal 12 aa]
- protein stability index [1]: 0.707 ± 0.013
- protein stability index (genetic background: wild type): 0.704 ± 0.013

Sequence: LLQVCFIGVVCE [IRC21 C-terminal 12 aa]
- protein stability index [1]: 0.275 ± 0.0082
- protein stability index (genetic background: wild type): 0.2885 ± 0.0018

Sequence: SVLTGGAVWMLF [DFG5 C-terminal 12 aa]
- protein stability index [1]: 0.7186 ± 0.0037
- protein stability index (genetic background: wild type): 0.652 ± 0.013

Sequence: LGIVIKRGKSLK [YJU2 C-terminal 12 aa]
- protein stability index [1]: 0.7248 ± 0.0027
- protein stability index (genetic background: wild type): 0.738 ± 0.024

Sequence: FSAVSSWLSFIF [YNL046W C-terminal 12 aa]
- protein stability index [1]: 0.772 ± 0.033
- protein stability index (genetic background: wild type): 0.725 ± 0.013

Sequence: PAAIKQAIAANA [TRX1 C-terminal 12 aa]
- protein stability index [1]: 0.45 ± 0.014
- protein stability index (genetic background: wild type): 0.489 ± 0.013

Sequence: ISEIEQLLSKLK [ATP4 C-terminal 12 aa]
- protein stability index [1]: 0.698 ± 0.014
- protein stability index (genetic background: wild type): 0.684 ± 0.045

Sequence: PISSKYTDGKKR [YPL205C C-terminal 12 aa]
- protein stability index [1]: 0.686 ± 0.012
- protein stability index (genetic background: wild type): 0.695 ± 0.013
